Assay results from patent US20200048328A1 (Bristol-Myers Squibb, published 2020).
Values belong to the binder of their own block, whether it stands above or below them.

What was measured:
human PCSK9 [1] = target: T1, human PCSK9 (human, UniProt Q8NBP7 31-692); assay: PCSK9:EGFA FRET 2, competition
T1 construct: also called hPCSK9; huPCSK9

mouse serum albumin = target: T2, mouse serum albumin (mouse, UniProt P07724 25-608); assay: direct binding ELISA, albumin coated
T2 construct: also called MSA; MuSA

rhesus serum albumin = target: T3, rhesus serum albumin (rhesus, UniProt Q28522 17-600); assay: direct binding ELISA, albumin coated
T3 construct: also called RhSA; Rh-SA

human serum albumin = target: T4, human serum albumin (human, UniProt P02768 25-609); assay: direct binding ELISA, albumin coated
T4 construct: immobilized on chips or coated on plates elsewhere; also called HSA; HuSA

human PCSK9 [2] = target: T1, human PCSK9; assay: PCSK9:LDLR FRET, competition
human PCSK9 [3] = target: T1, human PCSK9; assay: PCSK9:EGFA FRET 1, competition

B1: PCSK9-PKE2 tandem 4472_E09 (designed binder)
PCSK9 domain: MGVSDVPRDLEVVAATPTSLLISWDAPAEGYGYYRITYGETGGNSPVQEFTVPVSKGTATISGLKPGVDYTITVYAVEFDFPGAGYYHRPISINYRTE
PKE2 domain: GVSDVPRDLEVVAATPTSLLISWDAPAVTVRYYRITYGREVQKYSDLGPLYIYQEFTVPGSKSTATISGLKPGVDYTITVYAVTGSGESPASSKPISINYRTEHHHHHH
modifications: In the real molecule the two parts given here are one polypeptide, joined by the undisclosed linker A. They are written as two chains only because the linker has no letters.
notes: not shown: Linker 'A' joining ...NYRTE of the PCSK9 domain to GVSDV... of the PKE2 domain
IC50 (human PCSK9 [1]): 4.81 nM | EC50 (mouse serum albumin): 7 nM | EC50 (rhesus serum albumin): 19.8 nM | EC50 (human serum albumin): 23.8 nM | IC50 (human PCSK9 [2]): 1.3 nM | IC50 (human PCSK9 [3]): 5.81 nM

B5: PCSK9-PKE2 tandem 4472_F06 (designed binder)
PCSK9 domain: B1 PCSK9 domain
PKE2 domain: B1 PKE2 domain
modifications: The real molecule is ONE polypeptide: PCSK9 domain, undisclosed linker 'G' (a code letter, not the residue), PKE2 domain. It is given here as two chains because the linker letters are unknown.
notes: not shown: The inter-domain linker
IC50 (human PCSK9 [1]): 3.42 nM | EC50 (mouse serum albumin): 11.3 nM | EC50 (rhesus serum albumin): 40.8 nM | EC50 (human serum albumin): 58.9 nM | IC50 (human PCSK9 [2]): 1.1 nM | IC50 (human PCSK9 [3]): 4.5 nM

B6: PCSK9-PKE2 tandem 4472_A11 (designed binder)
PCSK9 domain: B1 PCSK9 domain
PKE2 domain: B1 PKE2 domain
modifications: In the real molecule the two parts given here are one polypeptide, joined by the undisclosed linker B. They are written as two chains only because the linker has no letters.
notes: not shown: Linker 'B' joining ...NYRTE of the PCSK9 domain to GVSDV... of the PKE2 domain
IC50 (human PCSK9 [1]): 3.76 nM | EC50 (mouse serum albumin): 3.9 nM | EC50 (rhesus serum albumin): 15.7 nM | EC50 (human serum albumin): 26.9 nM | IC50 (human PCSK9 [2]): 1.4 nM | IC50 (human PCSK9 [3]): 6.13 nM

B7: PCSK9-PKE2 tandem 4472_C08 (designed binder)
PCSK9 domain: B1 PCSK9 domain
PKE2 domain: B1 PKE2 domain
modifications: The real molecule is ONE polypeptide: PCSK9 domain, undisclosed linker 'E' (a code letter, not the residue), PKE2 domain. It is given here as two chains because the linker letters are unknown.
notes: as for B5
IC50 (human PCSK9 [1]): 5.09 nM | EC50 (mouse serum albumin): 4.8 nM | EC50 (rhesus serum albumin): 25.7 nM | EC50 (human serum albumin): 40.4 nM | IC50 (human PCSK9 [2]): 1.9 nM | IC50 (human PCSK9 [3]): 9.38 nM

B9: PCSK9-PKE2 tandem 4472_A06 (designed binder, not shown: small tags and cut ends)
PCSK9 10Fn3: B1 PCSK9 domain
PKE2 10Fn3: B1 PKE2 domain
modifications: The two parts are one polypeptide in the real molecule, joined by the undisclosed linker M; they are given here as separate chains.
IC50 (human PCSK9 [1]): 2.72 nM | EC50 (mouse serum albumin): 8.6 nM | EC50 (rhesus serum albumin): 44.4 nM | EC50 (human serum albumin): 77.8 nM | IC50 (human PCSK9 [2]): 1.6 nM | IC50 (human PCSK9 [3]): 9.06 nM

B11: PCSK9-PKE2 tandem 4472_B10 (designed binder)
PCSK9 domain: B1 PCSK9 domain
PKE2 domain: B1 PKE2 domain
modifications: The real molecule is ONE polypeptide: PCSK9 domain, undisclosed linker J, PKE2 domain. It is given here as two chains because the linker letters are unknown.
notes: as for B5
IC50 (human PCSK9 [1]): 6.97 nM | EC50 (mouse serum albumin): 10.9 nM | EC50 (rhesus serum albumin): 38.9 nM | EC50 (human serum albumin): 67.7 nM | IC50 (human PCSK9 [2]): 2.2 nM | IC50 (human PCSK9 [3]): 9.69 nM

Continued by falling IC50 (human PCSK9 [1]), values first:

IC50 (human PCSK9 [1]): 7.17 nM | EC50 (mouse serum albumin): 4 nM | EC50 (rhesus serum albumin): 26.8 nM | EC50 (human serum albumin): 27.8 nM | IC50 (human PCSK9 [2]): 3 nM | IC50 (human PCSK9 [3]): 9.66 nM
B2: PCSK9-PKE2 tandem 4472_H09 (designed binder)
PCSK9 domain: B1 PCSK9 domain
PKE2 domain: B1 PKE2 domain
modifications: The real molecule is ONE polypeptide: PCSK9 domain, undisclosed linker C, PKE2 domain. It is given here as two chains because the linker letters are unknown.
notes: as for B5

IC50 (human PCSK9 [1]): 6.95 nM | EC50 (mouse serum albumin): 9.8 nM | EC50 (rhesus serum albumin): 45.1 nM | EC50 (human serum albumin): 69.2 nM | IC50 (human PCSK9 [2]): 2.4 nM | IC50 (human PCSK9 [3]): 9.36 nM
B3: PCSK9-PKE2 tandem 4472_B09 (designed binder, not shown: small tags and cut ends)
PCSK9 10Fn3: B1 PCSK9 domain
PKE2 10Fn3: B1 PKE2 domain
modifications: The two parts are one polypeptide in the real molecule, joined by the undisclosed linker K; they are given here as separate chains.

IC50 (human PCSK9 [1]): 6.81 nM | EC50 (mouse serum albumin): 10 nM | EC50 (rhesus serum albumin): 48.3 nM | EC50 (human serum albumin): 61.3 nM | IC50 (human PCSK9 [2]): 2.4 nM | IC50 (human PCSK9 [3]): 7.81 nM
B8: PCSK9-PKE2 tandem 4472_G10 (designed binder)
PCSK9 domain: B1 PCSK9 domain
PKE2 domain: B1 PKE2 domain
modifications: The real molecule is ONE polypeptide: PCSK9 domain, undisclosed linker H (a code letter), PKE2 domain. It is given here as two chains because the linker letters are unknown.
notes: as for B5

IC50 (human PCSK9 [1]): 5.03 nM | EC50 (mouse serum albumin): 13.5 nM | EC50 (rhesus serum albumin): 54 nM | EC50 (human serum albumin): 70.1 nM | IC50 (human PCSK9 [2]): 2 nM | IC50 (human PCSK9 [3]): 6.54 nM
B4: PCSK9-PKE2 tandem 4472_B11 (designed binder, not shown: small tags and cut ends)
PCSK9 10Fn3: B1 PCSK9 domain
PKE2 10Fn3: B1 PKE2 domain
modifications: The two parts are one polypeptide in the real molecule, joined by the undisclosed linker L; they are given here as separate chains.

IC50 (human PCSK9 [1]): 4.18 nM | EC50 (mouse serum albumin): 3.8 nM | EC50 (rhesus serum albumin): 27.8 nM | EC50 (human serum albumin): 40.3 nM | IC50 (human PCSK9 [2]): 1.2 nM | IC50 (human PCSK9 [3]): 3.99 nM
B10: PCSK9-PKE2 tandem 4472_F04 (designed binder)
PCSK9 domain: B1 PCSK9 domain
PKE2 domain: B1 PKE2 domain
modifications: The real molecule is ONE polypeptide: PCSK9 domain, undisclosed linker D, PKE2 domain. It is given here as two chains because the linker letters are unknown.
notes: as for B5
